Measured values as given in article PMC2807033 (2009).
No end group written: not given here. *: point of attachment. Biotin = O=C1N[C@H]2[C@H](CS[C@H]2CCCCC(=O)*)N1

Target: E. coli replicative helicase DnaB, purified (E. coli, UniProt P0ACB0 1-471)
Assay: SPR

Chain of E. coli replicative helicase DnaB, purified (P0ACB0 whole entry): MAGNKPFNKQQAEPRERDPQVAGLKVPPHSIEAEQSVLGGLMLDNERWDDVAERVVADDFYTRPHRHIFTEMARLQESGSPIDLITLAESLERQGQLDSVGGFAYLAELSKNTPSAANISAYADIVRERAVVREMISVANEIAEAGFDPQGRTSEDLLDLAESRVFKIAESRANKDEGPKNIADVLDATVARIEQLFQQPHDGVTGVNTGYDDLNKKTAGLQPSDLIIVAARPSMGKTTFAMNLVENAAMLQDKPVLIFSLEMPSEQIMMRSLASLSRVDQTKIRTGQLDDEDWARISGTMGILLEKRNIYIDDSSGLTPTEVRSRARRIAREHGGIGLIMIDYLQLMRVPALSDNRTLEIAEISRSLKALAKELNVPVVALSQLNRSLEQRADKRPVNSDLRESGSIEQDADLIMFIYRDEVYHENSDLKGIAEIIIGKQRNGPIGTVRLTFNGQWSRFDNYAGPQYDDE

Binder: Biotin-EQERKVVSAEERMQKGQSHLANLKAMMAAKRGK [C33^Rep peptide (synthetic peptide corresponding to the C-terminal 33 residues of Rep)]
- Kd: 44 nM
